Several values for one entry are separate records, joined by “and”; a condition that tells them apart may be missing. Identical values can stand only once.
Legend:
[1] = biological target: AgrC-I receptor (Staphylococcus aureus (agr-I)); assay: cell-based or functional assay
[2] = tested on: Agr QS in the S. aureus reporter strain; assay: Solution Assay: fluorescence reporter assay (agrP3-mkate2 normalized to sarAP1-gfpmut2), plate reader; assay type: cell-based, Staphylococcus aureus; details: activation of Agr QS, compound in solution; n=3 experiments
Experimental: Transcription from fluorescence reporter genes was measured in S. aureus strain MK242. Overnight cultures were diluted 1:200 into fresh TSB with 10 µg/ml tetracycline and 10 µg/ml erythromycin, re-grown, and 90 μl of these cultures were distributed into wells of 96 well plates (MatTek, Ashland, Mass.), followed by addition of 10 μl of AIP-I and/or TrAIP-II and/or derivatives. Subsequently, 50 μl of mineral oil was added (Sigma, St. Louis, Mo.) to prevent evaporation. Using a Synergy 2 plate reader (Biotek, Winooski, Vt.), GFPmut2 and mKate2 levels were measured at 484 nm/528 nm and 588 nm/633 nm, respectively. Measurements were conducted with 15 min intervals at 37° C. with shaking. This assay was called “Solution Assay”.
To make AIP-I amenable to surface attachment, AIP-I containing an alkyne at the N-terminus was synthesized (FIG. 7A and FIG. 8A). This compound was called “Alkyne-AIP-I” (FIG. 2A). Prior to attaching the Alkyne-AIP-I to the surface linkers, the click reaction was carried out between the Alkyne-AIP-I and a surface-free version of the PEG330-azide linker to test if the AIP-I derivatives retained their activation capability following the click reaction. […] This compound was called “PEG330-triazole-AIP-I” (FIG. 2A (iii), FIG. 7A and FIG. 8B).
It was investigated whether a QS antagonist, when immobilized on a surface, could interfere with Agr QS signal transduction. […]

[3] = tested on: Agr QS in the S. aureus reporter strain; assay: Fluorescence imaging / single-cell analysis of S. aureus reporter strain incubated with compounds in solution; assay type: cell-based, Staphylococcus aureus; details: 100 nM AIP-I, 3 h incubation
Text: FIG. 1 Includes FIG. 1A-FIG. 1C. FIG. 1A. illustrates the Agr QS responses of S. aureus to exogenously supplied agonists and antagonists. To follow the QS status of S. aureus cells growing on unmodified and chemically-modified surfaces, confocal microscopy and an S. aureus reporter strain that produced the fluorescent protein mKate2 in response to exogenous addition of AIP-I was used. The reporter strain was a ΔagrBDCA ΔRNAIII S. aureus mutant harboring a multicopy plasmid carrying agrCA driven by the native agrP2 promoter. […] The plasmid also harbored the Agr-activated agrP3 promoter fused to mkate2. Therefore, in response to exogenously provided AIP-I, the reporter strain fluoresced red. This QS response was repressed by the administration of TrAIP-II. A constitutively expressed sarAP1-gfpmut2 gene was introduced into the chromosome to enable normalization of QS responses^18. FIG. 1B. […]
FIG. 1B. Fluorescence images of the S. aureus reporter strain (pathways shown in panel FIG. 1A) after 3 h incubation with buffer or buffer containing 100 nM AIP-I agonist. […] Fluorescence images of the S. aureus reporter strain used in this study following 3 h incubation with TrAIP-II or with combinations of AIP-I and TrAIP-II. […]
FIG. 6. […] To identify the source of heterogeneity, the fluorescent protein distributions in individual cells was measured under different conditions. […]

Substance	EC50 of Agr QS activation (agrP3-mkate2 reporter normalised to constitutive GFPmut2, solution assay, S. aureus reporter strain) [1] [nM]	IC50 of Agr QS inhibition when AIP-I is present at 100 nM (reporter solution assay) [1] [nM]	further results
Alkyne-AIP-I (peptide)	190		
Alkyne-TrAIP-II (peptide)		210	
AIP-I (peptide)	28		
PEG330-triazole-TrAIP-II (peptide)		3100	
TrAIP-II (peptide)		1500	decrease in QS inhibition when TrAIP-II is lowered from 2.5 µM to 250 nM, with 100 nM AIP-I [1]: 9 fold
AIP-I			EC50 [2]: 28 nM and 30 nM; mKate2 production (QS-controlled reporter) [3]: mKate2 was produced only when AIP-I was supplied to the cells
PEG330-triazole-AIP-I (peptide)	1100		
Surface-PEG10000-triazole-AIP-I (peptide)			activation of the Agr QS response at T=6 h against T=0 h (surface assay, microfluidic chambers) [1]: 25 fold; surface coverage density above which the QS response is saturated [1]: > 16000 µm^-2; surface coverage density below which no QS response is elicited [1]: < 210 µm^-2

From patent publication US20210186010A1, “SURFACES […] QUORUM SENSING MODULATORS” (priority 2015, published 2021)
